According to patent US20060014937A1:
Substitutions are numbered along the chain they refer to. Each block holds one binder with its values, some of them ahead of it.

Molecular target: HBV S-surface antigen (International Enzyme Inc., USA) adr type (hepatitis B virus (adr type))
Assay: competition ELISA in solution (Friguet method): antibody pre-mixed with 10^-11 to 10^-6 M antigen, free antibody caught on antigen-coated plate

Ka: 1e+08 M⁻¹
B1: humanized antibody YHB1110-13 (antibody, V domains shown)
VH: QVQLKQSGPGLVKPSQTLSLTCTVSGFSLSTYGVQWVRQPPGKGLEWLGVIWSGGNTDYNAAFISRVTISKDTSKNQVSLKLSSVTAADTAVYYCARARYFDVWGAGTTVTVSS
VL: QAVVTQEPSLTVSPGGTVTLTCRSSTGAITTNNFANWFQQKPGQAFRGLIGDTNNRVPGVPARFSGSLLGNKAALTITGAQPEDEAEYYCALWYNNWVFGGGTKLTVLG

Ka: 7e+07 M⁻¹
B2: humanized antibody YHB1110-15 (antibody, V domains shown)
VH: B1 VH
VL: B1 VL with L69I, N71D
